Test results from patent US20150023971A1.

What was measured:
RSSD [1] = target: T1, RSSD; test: SPOT length analysis, dot 82, anti-histidine detection
T1 sequence (peptide): RSSD

FRSSD = target: T2, FRSSD; test: SPOT length analysis, dot 69, HRP-S-protein detection
T2 sequence (peptide): FRSSD

FRSSDFAK = target: T3, FRSSDFAK; test: SPOT length analysis, dot 39, HRP-S-protein detection
T3 sequence (peptide): FRSSDFAK

[2] = target: T4, …; test: SPOT length analysis, dot 13, HRP-S-protein detection
T4 sequence (peptide): FRSSDFAKNFVQ

SDFA = target: T5, SDFA; test: SPOT length analysis, dot 84, anti-histidine detection
T5 sequence (peptide): SDFA

RSSD [3] = target: T1, RSSD; test: SPOT length analysis, dot 82, HRP-S-protein detection
VQTD = target: T6, VQTD; test: SPOT length analysis, dot 91, HRP-S-protein detection
T6 sequence (peptide): VQTD

[4] = target: T7, …; test: SPOT length analysis, dot 5, anti-histidine detection
T7 sequence (peptide): IFRSSDFAKNFVQT

[5] = target: T8, …; test: SPOT length analysis, dot 35, anti-histidine detection
T8 sequence (peptide): DFAKNFVQT

SSDFAKNF = target: T9, SSDFAKNF; test: SPOT length analysis, dot 41, anti-histidine detection
T9 sequence (peptide): SSDFAKNF

[6] = target: T8, …; test: SPOT length analysis, dot 35, HRP-S-protein detection
[7] = target: T10, …; test: SPOT length analysis, dot 34, HRP-S-protein detection
T10 sequence (peptide): SDFAKNFVQ

FAKNFV = target: T11, FAKNFV; test: SPOT length analysis, dot 63, HRP-S-protein detection
T11 sequence (peptide): FAKNFV

KNFVQTD = target: T12, KNFVQTD; test: SPOT length analysis, dot 55, anti-histidine detection
T12 sequence (peptide): KNFVQTD

RSSDFAK = target: T13, RSSDFAK; test: SPOT length analysis, dot 49, HRP-S-protein detection
T13 sequence (peptide): RSSDFAK

IFRSSD [8] = target: T14, IFRSSD; test: SPOT length analysis, dot 57, anti-histidine detection
T14 sequence (peptide): IFRSSD

AKNF = target: T15, AKNF; test: SPOT length analysis, dot 87, HRP-S-protein detection
T15 sequence (peptide): AKNF

[9] = target: T16, …; test: SPOT length analysis, dot 21, anti-histidine detection
T16 sequence (peptide): SDFAKNFVQTD

SSDFAK = target: T17, SSDFAK; test: SPOT length analysis, dot 60, HRP-S-protein detection
T17 sequence (peptide): SSDFAK

NFVQ = target: T18, NFVQ; test: SPOT length analysis, dot 89, HRP-S-protein detection
T18 sequence (peptide): NFVQ

FAKN = target: T19, FAKN; test: SPOT length analysis, dot 86, anti-histidine detection
T19 sequence (peptide): FAKN

IFRS [10] = target: T20, IFRS; test: SPOT length analysis, dot 80, HRP-S-protein detection
T20 sequence (peptide): IFRS

SDFAKNF [11] = target: T21, SDFAKNF; test: SPOT length analysis, dot 51, HRP-S-protein detection
T21 sequence (peptide): SDFAKNF

FAKNFVQ = target: T22, FAKNFVQ; test: SPOT length analysis, dot 53, HRP-S-protein detection
T22 sequence (peptide): FAKNFVQ

SSDFAKN = target: T23, SSDFAKN; test: SPOT length analysis, dot 50, HRP-S-protein detection
T23 sequence (peptide): SSDFAKN

IFRSS = target: T24, IFRSS; test: SPOT length analysis, dot 68, anti-histidine detection
T24 sequence (peptide): IFRSS

[12] = target: T25, …; test: SPOT length analysis, dot 14, anti-histidine detection
T25 sequence (peptide): RSSDFAKNFVQT

[13] = target: T26, …; test: SPOT length analysis, dot 31, HRP-S-protein detection
T26 sequence (peptide): FRSSDFAKN

SSDF = target: T27, SSDF; test: SPOT length analysis, dot 83, HRP-S-protein detection
T27 sequence (peptide): SSDF

[14] = target: T28, …; test: SPOT length analysis, dot 26, anti-histidine detection
T28 sequence (peptide): SSDFAKNFVQ

RSSDFA = target: T29, RSSDFA; test: SPOT length analysis, dot 59, anti-histidine detection
T29 sequence (peptide): RSSDFA

[15] = target: T30, sortilin peptide … on SPOT membrane; test: SPOT length analysis, dot 1, anti-histidine detection
T30 sequence (peptide, C-terminus anchored to the cellulose membrane through a beta-alanine linker): RIFRSSDFAKNFVQTD

RIFRSS = target: T31, RIFRSS; test: SPOT length analysis, dot 56, HRP-S-protein detection
T31 sequence (peptide): RIFRSS

NFVQTD [16] = target: T32, NFVQTD; test: SPOT length analysis, dot 66, anti-histidine detection
T32 sequence (peptide): NFVQTD

[17] = target: T33, …; test: SPOT length analysis, dot 30, HRP-S-protein detection
T33 sequence (peptide): IFRSSDFAK

[18] = target: T34, …; test: SPOT length analysis, dot 18, HRP-S-protein detection
T34 sequence (peptide): FRSSDFAKNFV

IFRS [19] = target: T20, IFRS; test: SPOT length analysis, dot 80, anti-histidine detection
SDFAK = target: T35, SDFAK; test: SPOT length analysis, dot 72, HRP-S-protein detection
T35 sequence (peptide): SDFAK

DFAK = target: T36, DFAK; test: SPOT length analysis, dot 85, HRP-S-protein detection
T36 sequence (peptide): DFAK

[20] = target: T37, …; test: SPOT length analysis, dot 2, anti-histidine detection
T37 sequence (peptide): RIFRSSDFAKNFVQT

NFVQTD [21] = target: T32, NFVQTD; test: SPOT length analysis, dot 66, HRP-S-protein detection
[22] = target: T4, …; test: SPOT length analysis, dot 13, anti-histidine detection
SDFAKNF [23] = target: T21, SDFAKNF; test: SPOT length analysis, dot 51, anti-histidine detection
RSSDF = target: T38, RSSDF; test: SPOT length analysis, dot 70, HRP-S-protein detection
T38 sequence (peptide): RSSDF

IFRSSD [24] = target: T14, IFRSSD; test: SPOT length analysis, dot 57, HRP-S-protein detection
[25] = target: T39, sortilin 4-mer peptide RIFR (length analysis); test: SPOT length analysis, dot 79, HRP-S-protein detection
T39 sequence (peptide, C-terminus anchored to the cellulose membrane through a beta-alanine linker): RIFR

[26] = target: T30, sortilin peptide … on SPOT membrane; test: SPOT length analysis, dot 1, HRP-S-protein detection
[27] = target: T40, …; test: SPOT length analysis, dot 3, HRP-S-protein detection
T40 sequence (peptide): IFRSSDFAKNFVQTD

B1: recombinant his-S-tagged pro-domain of human BDNF (residues Ala1-Arg110), from pET-30 Xa/LIC, E. coli (protein, not shown: small tags and cut ends)
chain: APMKEANIRGQGGLAYPGVRTHGTLESVNGPKAGSGLTSLADTFEHVIEELLDEDQKVRPNEENNKDADLYTSRVMLSSQVPLEPPLLFLLEEYKNYLDAANMSMRVRR
RSSD [1]
  BLU His: 15000 BLU
FRSSD
  BLU Sprotein: 15000 BLU
FRSSDFAK
  BLU Sprotein: 19200 BLU
[2]
  BLU Sprotein: 199000 BLU
SDFA
  BLU His: 14200 BLU
RSSD [3]
  BLU Sprotein: 14900 BLU
VQTD
  BLU Sprotein: 13800 BLU
[4]
  BLU His: 53400 BLU
[5]
  BLU His: 19100 BLU
SSDFAKNF
  BLU His: 15500 BLU
[6]
  BLU Sprotein: 19500 BLU
[7]
  BLU Sprotein: 18900 BLU
FAKNFV
  BLU Sprotein: 29600 BLU
KNFVQTD
  BLU His: 18300 BLU
RSSDFAK
  BLU Sprotein: 16400 BLU
IFRSSD [8]
  BLU His: 17900 BLU
AKNF
  BLU Sprotein: 13700 BLU
[9]
  BLU His: 15700 BLU
SSDFAK
  BLU Sprotein: 15900 BLU
NFVQ
  BLU Sprotein: 13400 BLU
FAKN
  BLU His: 15200 BLU
IFRS [10]
  BLU Sprotein: 111000 BLU
SDFAKNF [11]
  BLU Sprotein: 17200 BLU
FAKNFVQ
  BLU Sprotein: 20300 BLU
SSDFAKN
  BLU Sprotein: 15900 BLU
IFRSS
  BLU His: 25300 BLU
[12]
  BLU His: 24700 BLU
[13]
  BLU Sprotein: 20300 BLU
SSDF
  BLU Sprotein: 14000 BLU
[14]
  BLU His: 17800 BLU
RSSDFA
  BLU His: 18300 BLU
[15]
  BLU His: 57000 BLU
RIFRSS
  BLU Sprotein: 94400 BLU
NFVQTD [16]
  BLU His: 15400 BLU
[17]
  BLU Sprotein: 25700 BLU
[18]
  BLU Sprotein: 448000 BLU
IFRS [19]
  BLU His: 51100 BLU
SDFAK
  BLU Sprotein: 14800 BLU
DFAK
  BLU Sprotein: 13300 BLU
[20]
  BLU His: 113000 BLU
NFVQTD [21]
  BLU Sprotein: 14500 BLU
[22]
  BLU His: 25800 BLU
SDFAKNF [23]
  BLU His: 17200 BLU
RSSDF
  BLU Sprotein: 15500 BLU
IFRSSD [24]
  BLU Sprotein: 18100 BLU
[25]
  BLU Sprotein: 166000 BLU
[26]
  BLU Sprotein: 137000 BLU
[27]
  BLU Sprotein: 76200 BLU
